This data set concerns the molecule itself. The data set is described as follows: SDS-PAGE.

B1: full-length Lsr2 from Mycobacterium tuberculosis (natural protein)
chain: not shown
notes: Lsr2 (Rv3597c) of Mycobacterium tuberculosis H37Rv, full length; also called Rv3597c
With B1, the binding result is recorded as “binds”.

(Values after article PMC3374832, “The Structure of the Oligomerization Domain of Lsr2 from Mycobacterium tuberculosis Reveals a Mechanism for Chromosome Organization and Protection” (PLoS ONE, 2012).)
